Tests used:
[1] = target: H. sapiens nucleosome core particle (NCP) (human); assay: native gel or EMSA
[2] = target: Kaposi's Sarcoma Herpesvirus Latency Associated Nuclear Antigen (LANA) peptide (Kaposi's Sarcoma Herpesvirus); assay: fluorescence polarisation
Sequence of Kaposi's Sarcoma Herpesvirus Latency Associated Nuclear Antigen (LANA) peptide (Kaposi's Sarcoma Herpesvirus) (Q9QR71 4-23): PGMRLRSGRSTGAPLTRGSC

| Substance | Kd [1] [nM] | Kd [2] [nM] |
| --- | --- | --- |
| GST-His-TEV-tagged PFV GAG (from UniProt P14349 535-550) (peptide) | 3500 |  |
| H. sapiens nucleosome core particle (NCP) (complex) |  | 2380 |

— doi:10.1101/2023.04.17.536592
